In patent US20230416329A1 (INSTITUTE OF MATERIA MEDICA CHINESE ACADEMY OF MEDICAL …, published 2023) one finds Ki and IC50 data, which are given here for 39 molecules.

In assay [1] the target is T1, porcine pancreatic elastase (porcine, UniProt P00772 27-266).
T1 construct: substrate AAApNA
Kind of assay: elastase inhibition, Ki=IC50/(1+S/Km).

Assay [2] has as its target T1, porcine pancreatic elastase. Kind of assay: elastase inhibition, AAApNA substrate, OD405.
Assay [3] has as its target bovine trypsin (bovine, UniProt P00760 24-246). Description: trypsin inhibition, BApNA substrate. Here is the method: The substrates N-succinyl-Ala-Ala-Pro-Phe-p-nitroaniline (AAPFpNA), Nα—Benzoyl-L-arginine-4-nitroaniline hydrochloride (BApNA) and N-succinyl-[…] (AAApNA) are used in competitive binding reaction to determine the inhibitory activities against α-chymotrypsin, bovine trypsin, and porcine pancreatic elastase, respectively. Experiments for α-chymotrypsin and bovine trypsin inhibition were measured in 20 mM CaCl₂, 50 mM Tris-HCl buffer (pH 7.8), and that for porcine elastase inhibition was measured in 50 mM Tris-HCl buffer (pH 8.0). The concentration of the peptide was measured using optical density (OD) at 280 nm. The Michaelis constant (Kₘ) of the enzyme hydrolysis substrate is calculated from the initial rate of substrate hydrolysis at 405 nm. The absorbance value of the substrate was measured at 405 nm after complete hydrolysis. All data were processed using nonlinear regression.
(1) Added a total 190 μL of reaction buffer (20 mM CaCl₂ and 50 mM Tris-HCl, pH 7.8) along with different concentrations of anti-trypsin peptides (BTs) into the pre-cooled 96-well plate, followed by preheating at 37° C., and spined down at 500 rpm for 5 min. Next added 10 μL of 1 μM trypsin, incubated at 37° C., and then spined down at 500 rpm for 10 min. Finally, added 5 μL of 50 mM BApNA, and mixed by centrifugation at 500 rpm for 1 min. […] The experiment was performed in triplicate. The blank control only contained the reaction buffer and the substrate as the minimum absorption value (Min OD_{405 nm}). The negative control only contained the reaction buffer, the enzyme and the substrate as the maximum absorption value (Max OD_{405 nm}). […] (2) In the reaction system of 205 μL, the final concentrations of trypsin and BApNA were 50 nM and 1.22 mM, respectively. [0456] (3) Data statistics

Bridge positions count the residues as written; N and C are the ends. Square brackets hold non-standard residues; d marks the D form. Ends that are not written are not given here. Hyp = O=C(O)[C@@H]1C[C@@H](O)CN1; hCys = N[C@@H](CCS)C(=O)O; Nle = CCCC[C@H](N)C(=O)O

T1 sequence (P00772 27-266 limits assumed): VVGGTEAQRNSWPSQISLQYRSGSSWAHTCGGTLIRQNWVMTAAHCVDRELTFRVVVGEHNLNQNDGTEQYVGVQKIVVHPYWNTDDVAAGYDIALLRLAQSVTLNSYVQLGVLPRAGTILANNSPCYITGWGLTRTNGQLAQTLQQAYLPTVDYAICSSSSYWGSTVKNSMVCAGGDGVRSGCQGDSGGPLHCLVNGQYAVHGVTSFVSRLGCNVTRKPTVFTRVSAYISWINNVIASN
Sequence of bovine trypsin (P00760 24-246): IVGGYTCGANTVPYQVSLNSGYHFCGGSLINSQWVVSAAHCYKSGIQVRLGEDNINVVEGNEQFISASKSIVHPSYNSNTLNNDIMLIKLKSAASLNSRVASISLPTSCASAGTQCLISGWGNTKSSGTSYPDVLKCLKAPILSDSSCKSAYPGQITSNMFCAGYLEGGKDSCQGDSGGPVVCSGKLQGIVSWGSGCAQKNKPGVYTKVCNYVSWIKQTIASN

Consider ICTASI[Hyp]PICQ (disulfide 2-10 (inferred), disulfide bond between the two Cys) [EC47], for which, in assay [1], the affinity corresponds to a Ki of 110 nM. In assay [2], inhibition was half-maximal at 400 nM (IC50).

On to CGRATKSIPPIAC (disulfide 1-13 (inferred)) [BT13], for which, in assay [3], the concentration for half-maximal inhibition (IC50) (as a rule, the midpoint of a concentration-inhibition curve) amounted to 31500 nM; the inhibition constant Ki – broadly, the dissociation constant of the complex between target and ligand, obtained from inhibition or displacement – was determined as 6700 nM.

In the case of CWTKSIPPKPC (disulfide 1-11 (inferred)) [BT36], in assay [3], the IC50 came out at 4650 nM and the inhibition constant Ki stood at 990 nM.

In assay [1], CGLATLSIPPICQ (disulfide 1-12 (inferred), disulfide bond between the two Cys) [EC7] displayed a Ki of 9620 nM. In addition, inhibition in assay [2] was half-maximal at 33700 nM (IC50).

Take CAIATASIPPICQ (disulfide 1-12 (inferred), disulfide bond between the two Cys) [EC45]: the inhibitory constant (Ki) in assay [1] came out at 13400 nM. The molecule further yielded an IC50 in assay [2] of 47000 nM.

In turn, CGILTASIPPICQ (disulfide 1-12 (inferred), disulfide bond between the two Cys) [EC33] registered a Ki in assay [1] of 7580 nM. The molecule also displayed an IC50 in assay [2] of 26500 nM.

With CGRATKSIPPQCY (disulfide 1-12 (inferred)) [BT12], in assay [3], half-maximal inhibition (IC50) required 8460 nM and the Ki came to 1800 nM.

On to QGADTPPVGGLCTASIPPQCY (disulfide 12-20 (inferred), disulfide bond between the two Cys) [EC49], for which, in assay [1], the affinity corresponds to a Ki of 280 nM. This molecule registered an IC50 in assay [2] of 990 nM.

In turn, MCTASMPPQCH (disulfide 2-10 (inferred), disulfide bond between the two Cys) [EC26] had a Ki in assay [1] of 6840 nM. In assay [2], this molecule returned an IC50 of 23900 nM.

Take ACTKSNPPQCR (disulfide 2-10 (inferred)) [BT68]: in assay [3], it took 2430 nM to reach half-maximal inhibition (IC50) and the inhibitory constant (Ki) is 520 nM.

In assay [3], RCTKSLPPQCS (disulfide 2-10 (inferred)) [BT65] yielded an IC50 of 620 nM and an inhibition constant Ki of 130 nM.

In assay [3], CGRATKSLPPACF (disulfide 1-12 (inferred)) [BT14] returned an IC50 of 1650 nM and an inhibitory constant (Ki) of 350 nM.

In assay [3], GTCTRSIPPICNPN (disulfide 3-11 (inferred)) [BT23] had a half-maximal inhibitory concentration (IC50) of 1820 nM and a Ki of 390 nM.

In assay [3], CGRATKSIPPIAFGC (disulfide 1-15 (inferred)) [BT32] gave an IC50 of 1540 nM and a Ki of 330 nM.

In assay [3], CGAKGTKSIPPICFPD (disulfide 1-13 (inferred)) [BT2] came in with an IC50 of 3030 nM and a Ki of 650 nM.

Take CGAKATKSIPPICFPD (disulfide 1-13 (inferred)) [BT3]: in assay [3], the IC50 came to 680 nM and the Ki is 140 nM.

ICTASYPPQCR (disulfide 2-10 (inferred), disulfide bond between the two Cys) [EC27] returned an inhibition constant Ki in assay [1] of 2440 nM. This molecule also displayed a half-maximal inhibitory concentration (IC50) in assay [2] of 8530 nM.

On to CGRATKS[Nle]PPICF (disulfide 1-12 (inferred)) [BT28], for which, in assay [3], half-maximal inhibition (IC50) was put at 290 nM and the affinity, expressed as Ki, was 60 nM.

In assay [3], [hCys]GRATKSIPPIAF[hCys] (disulfide 1-14) [BT29] had an IC50 of 10600 nM and an inhibition constant (Ki) of 2260 nM.

B1: BT45 (peptide)
peptide: RCTKSIPPICF
modifications: disulfide 2-10 (inferred)
notes: also called truncated monocyclic SFTI-1 mutant
In assay [3], B1 returned an IC50 of 30 nM and a Ki of 6.4 nM.

Regarding RCTKSIPPHCF (disulfide 2-10 (inferred)) [BT62], in assay [3], the IC50 stood at 70 nM and the inhibition constant Ki was determined as 10 nM.

In assay [3], RCTKSIPPQCH (disulfide 2-10 (inferred)) [BT63] showed an IC50 of 90 nM and an inhibition constant (Ki) of 20 nM.

Turning to LCTASIPPICQ (disulfide 2-10 (inferred), disulfide bond between the two Cys) [EC12], the Ki in assay [1] was 110 nM. In assay [2], the IC50 was found to be 400 nM.

VCTASIPPICQ (disulfide 2-10 (inferred), disulfide bond between the two Cys) [EC22]: the affinity in assay [1] corresponds to a Ki of 110 nM. The same molecule registered an IC50 in assay [2] of 400 nM.

As to YCTASIPPQCY (disulfide 2-10 (inferred), disulfide bond between the two Cys) [EC14], in assay [1], the affinity, expressed as Ki, was 2040 nM. This molecule also displayed an IC50 in assay [2] of 7140 nM.

As for LCTASIPPQCQ (disulfide 2-10 (inferred), disulfide bond between the two Cys) [EC18], affinity in assay [1] was put at a Ki of 270 nM. Moreover, the IC50 in assay [2] was 960 nM.

LCTASIPPICR (disulfide 2-10 (inferred), disulfide bond between the two Cys) [EC21] registered a Ki in assay [1] of 4370 nM. In assay [2], the half-inhibitory concentration (IC50) turned out to be 15300 nM.

In the case of ICTASIPPQCQ (disulfide 2-10 (inferred), disulfide bond between the two Cys) [EC19], the Ki in assay [1] stood at 330 nM. Half-maximal inhibition in assay [2] (IC50) was put at 1140 nM.

LCTLSIPPQCY (disulfide 2-10 (inferred), disulfide bond between the two Cys) [EC2] came in with a Ki in assay [1] of 910 nM. In assay [2], the half-maximal inhibitory concentration (IC50) was determined as 3190 nM.

ICTASIPPICQ (disulfide 2-10 (inferred), disulfide bond between the two Cys) [EC23] came in with a Ki in assay [1] of 70 nM. Further, the IC50 in assay [2] was determined as 250 nM.

FCTASIPPICQ (disulfide 2-10 (inferred), disulfide bond between the two Cys) [EC24] gave a Ki in assay [1] of 640 nM. For the same molecule, in assay [2], the midpoint of inhibition, the IC50, lay at 2230 nM.

The molecule YCTASIPPICQ (disulfide 2-10 (inferred), disulfide bond between the two Cys) [EC29] displayed a Ki in assay [1] of 260 nM. In assay [2], this molecule displayed an IC50 of 920 nM.

The molecule LCTASIPPQCY (disulfide 2-10 (inferred), disulfide bond between the two Cys) [EC1] displayed a Ki in assay [1] of 330 nM. It took 1170 nM to reach half-maximal inhibition in assay [2] (IC50).

LCTASNPPICQ (disulfide 2-10 (inferred), disulfide bond between the two Cys) [EC25] had a Ki in assay [1] of 300 nM. This molecule also displayed an IC50 in assay [2] of 1050 nM.

In the case of [hCys]GRATKSIPPIAFG[hCys] (disulfide 1-15) [BT33], in assay [3], the IC50 is 5570 nM and the Ki came to 1190 nM.

As to CGRATKSIPPIAFC (disulfide 1-14 (inferred)) [BT11], in assay [3], the IC50 turned out to be 2200 nM and affinity was put at a Ki of 470 nM.

CGI[Nle]TASIPPICQ (disulfide 1-12 (inferred), disulfide bond between the two Cys) [EC32]: the inhibition constant Ki in assay [1] is 6110 nM. This molecule also displayed an IC50 in assay [2] of 21400 nM.

Regarding ICTASIP[Hyp]ICQ (disulfide 2-10 (inferred), disulfide bond between the two Cys) [EC48], in assay [1], the affinity corresponds to a Ki of 160 nM. The IC50 in assay [2] stood at 550 nM.

In assay [3], RCTKSNPPQCQ (disulfide 2-10 (inferred)) [BT64] came in with an IC50 of 3430 nM and an inhibition constant (Ki) of 730 nM.
